Experiments:
[1] = biological target: T1, human TGF-β1 (human, UniProt P01137 279-390, biotinylated in the FIG. 8C ELISA; unlabelled rhTGF-β1 in FIG. 9B/9C); assay: ELISA, protein coated, biotinylated huTGFb1 detected by avidin-HRP
T1 construct: also called biotinylated huTGFb1; rhTGF-β1

[2] = biological target: T2, biotinylated huPD-L1 (human, UniProt Q9NZQ7 19-238, limits assumed, biotinylated (site not stated)); assay: ELISA, antibody coated, biotinylated huPD-L1 detected by avidin-HRP
T2 construct: it is treated here as the same reagent; also called biotinylated PD-L1
T2 sequence (Q9NZQ7 19-238 limits assumed): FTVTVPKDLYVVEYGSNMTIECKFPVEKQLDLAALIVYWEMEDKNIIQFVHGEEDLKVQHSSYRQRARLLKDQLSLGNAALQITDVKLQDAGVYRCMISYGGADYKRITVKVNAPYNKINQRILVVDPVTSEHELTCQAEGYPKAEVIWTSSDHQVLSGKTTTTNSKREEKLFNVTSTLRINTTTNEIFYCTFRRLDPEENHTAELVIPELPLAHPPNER

T1 sequence (P01137 279-390 limits assumed): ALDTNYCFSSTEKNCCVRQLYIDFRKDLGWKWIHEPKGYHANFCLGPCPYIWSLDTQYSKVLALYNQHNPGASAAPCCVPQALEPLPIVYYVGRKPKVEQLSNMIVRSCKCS

| binding result [1] | binding result [2] | Binder |
| --- | --- | --- |
| no binding | – | anti-VEGF (bevacizumab) (antibody, human IgG1, kappa, V domains shown) VH: EVQLVESGGGLVQPGGSLRLSCAASGYTFTNYGMNWVRQAPGKGLEWVGWINTYTGEPTYAADFKRRFTFSLDTSKSTAYLQMNSLRAEDTAVYYCAKYPHYYGSSHWYFDVWGQGTLVTVSS VL: DIQMTQSPSSLSASVGDRVTITCSASQDISNYLNWYQQKPGKAPKVLIYFTSSLHSGVPSRFSGSGSGTDFTLTISSLQPEDFATYYCQQYSTVPWTFGQGTKVEIKR |
| – | no binding | anti-PD1 (nivolumab) (antibody, human IgG4 S228P, kappa, V domains shown, Negative control in the PD-L1 ELISA) VH: QVQLVESGGGVVQPGRSLRLDCKASGITFSNSGMHWVRQAPGKGLEWVAVIWYDGSKRYYADSVKGRFTISRDNSKNTLFLQMNSLRAEDTAVYYCATNDDYWGQGTLVTVSS VL: EIVLTQSPATLSLSPGERATLSCRASQSVSSYLAWYQQKPGQAPRLLIYDASNRATGIPARFSGSGSGTDFTLTISSLEPEDFAVYYCQQSSNWPRTFGQGTKVEIKR |

— US20210107969A1 (Johns Hopkins, published 2021)
